Results taken from doi:10.1101/2021.09.17.460839.

Molecular target: T1, Rv0792c (Mycobacterium tuberculosis) (UniProt O86331)
T1 sequence: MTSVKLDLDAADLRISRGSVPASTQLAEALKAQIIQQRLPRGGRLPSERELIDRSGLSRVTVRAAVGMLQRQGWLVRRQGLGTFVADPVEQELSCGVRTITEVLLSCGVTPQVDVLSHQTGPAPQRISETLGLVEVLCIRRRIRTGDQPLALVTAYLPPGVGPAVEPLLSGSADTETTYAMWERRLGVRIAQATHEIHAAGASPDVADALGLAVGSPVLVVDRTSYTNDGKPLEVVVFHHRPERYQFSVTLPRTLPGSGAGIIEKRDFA
Experiment: ALISA

Sequence	binding signal [% reduction]	Kd [µM]
TAGGGTCTCGGATCGGAGGGATGGGCAGTGTGTGCGGTATGTTG [Rv0792c_5 aptamer (printed Rv0729c_5)]	90	
TCGTATTCATCTCTACATCCGGTAATCCGCACATGAGTAATCC [Rv0792c_1 aptamer (printed Rv0729c_1)]	90	
TCTAGTCATTCGTCATAATCCCATCTGTTTCTTCCTCCTTCCGT [Rv0792c_2 aptamer (printed Rv0729c_2)]		0.051
